US20140087995A1 (published 2014)
Numbered stars: 1 amine (or outer) side, 2 acyl side, 3 side chain; on linkers, the order of the positions; unused ones are H or OH. Bridge positions count the residues as written; N and C are the ends. * marks the point of attachment. C20 diacid = O=C(O)CCCCCCCCCCCCCCCCCCC(=O)*; γGlu = O=C(O)[C@H](CCC(=O)[*:2])N[*:1]

T1: human amylin receptor (human, UniProt P30988 25-474; O60896 24-148, limits assumed)
T1 construct: whole, on cells; Used as cell membranes prepared from the Amylin 3(a)/CRE-luc BHK cells (Assay V); also called hAmylin-R; hAmylinR
T1 sequence (looked up) 1: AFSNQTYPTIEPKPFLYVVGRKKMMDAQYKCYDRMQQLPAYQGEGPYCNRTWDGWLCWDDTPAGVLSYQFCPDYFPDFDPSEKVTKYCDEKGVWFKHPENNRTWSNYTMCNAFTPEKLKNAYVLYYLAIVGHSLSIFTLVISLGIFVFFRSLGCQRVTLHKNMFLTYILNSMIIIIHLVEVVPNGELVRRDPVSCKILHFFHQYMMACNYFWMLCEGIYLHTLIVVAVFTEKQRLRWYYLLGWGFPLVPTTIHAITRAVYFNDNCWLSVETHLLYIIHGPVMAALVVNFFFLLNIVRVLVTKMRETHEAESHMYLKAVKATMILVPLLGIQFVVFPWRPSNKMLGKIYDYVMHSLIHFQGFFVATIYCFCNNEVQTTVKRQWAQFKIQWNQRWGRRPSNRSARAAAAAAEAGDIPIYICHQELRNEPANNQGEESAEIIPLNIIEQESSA
T1 sequence (looked up) 2: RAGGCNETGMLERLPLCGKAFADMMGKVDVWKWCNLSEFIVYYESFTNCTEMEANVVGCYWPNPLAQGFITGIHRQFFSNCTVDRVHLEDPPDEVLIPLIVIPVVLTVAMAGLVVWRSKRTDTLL


target: T1, human amylin receptor; experiment: SPA competition vs 125I-rat amylin, membranes of amylin 3(a) receptor BHK cells (Assay V)
Description: The binding assay was performed using scintillation proximity assay (SPA) beads (RPNQ0001) from PerkinElmer and cell membranes from the Amylin 3(a)/CRE-luc cells (as described in Assay (II)) were used. Membranes were prepared in the following way; the cells were rinsed with PBS and incubated with Versene for approximately 5 min before harvesting. The cells were flushed with PBS and the cell-suspension was centrifuged for 5 min at 1000 rpm. Cells were homogenized (ultrathurrax) in a buffer containing 20 mM Na-HEPES and 10 mM EDTA (pH 7.4) and centrifuged at 20.000 rpm for 15 min. The resulting pellet was resuspended, homogenized and centrifuged (20.000 rpm, 15 min) in a buffer containing 20 mM Na-HEPES and 0.1 mM EDTA (pH 7.4, buffer 2). The resulting pellet was resuspended in buffer 2 and protein concentration was measured (BCA protein Assay, Pierce). The homogenate was kept cold during the whole procedure. The membranes were kept at −80° C. until use. The assay was performed in a 384 well Optiplate (PerkinElmer) in a total volume of 40 ul. Membranes were mixed with SPA beads. Final concentration of membranes 35 ng/μL final and SPA beads was 0.05 mg/well. Test-compounds were dissolved in DMSO and further diluted in assay buffer (50 mM Hepes, pH 7.4, 1 mM CaCl2, 5 mM MgCl₂, 0.1% OA and 0.02% Tween20). […] The final mixture was incubated with shaking at 400 rpm for 120 min at 25° C. prior to centrifugation (1500 rpm, 10 min). Samples were analyzed on TopCounter™ (Packard). The IC₅₀ was calculated using (one site binding competition analysis) GraphPad Prism5 as a measure of receptor affinity.

| IC50 | Binder |
| --- | --- |
| 0.597 nM | {C20 diacid-γGlu-γGlu}-KCNTATCATQRLAEFLRHSSPNFGAIPSSTNVGSNTY-NH2 (disulfide 2-7; SMILES CC[C@H](C)[C@H](NC(=O)[C@H](C)NC(=O)CNC(=O)[C@H](Cc1ccccc1)NC(=O)[C@H](CC(N)=O)NC(=O)[C@@H]1CCCN1C(=O)[C@H](CO)NC(=O)[C@H](CO)NC(=O)[C@H](Cc1c[nH]cn1)NC(=O)[C@H](CCCNC(=N)N)NC(=O)[C@H](CC(C)C)NC(=O)[C@H](Cc1ccccc1)NC(=O)[C@H](CCC(=O)O)NC(=O)[C@H](C)NC(=O)[C@H](CC(C)C)NC(=O)[C@H](CCCNC(=N)N)NC(=O)[C@H](CCC(N)=O)NC(=O)[C@@H](NC(=O)[C@H](C)NC(=O)[C@@H]1CSSC[C@H](NC(=O)[C@H](CCCCN)NC(=O)CC[C@H](NC(=O)CC[C@H](NC(=O)CCCCCCCCCCCCCCCCCCC(=O)O)C(=O)O)C(=O)O)C(=O)N[C@@H](CC(N)=O)C(=O)N[C@@H]([C@@H](C)O)C(=O)N[C@@H](C)C(=O)N[C@@H]([C@@H](C)O)C(=O)N1)[C@@H](C)O)C(=O)N1CCC[C@H]1C(=O)N[C@@H](CO)C(=O)N[C@@H](CO)C(=O)N[C@H](C(=O)N[C@@H](CC(N)=O)C(=O)N[C@H](C(=O)NCC(=O)N[C@@H](CO)C(=O)N[C@@H](CC(N)=O)C(=O)N[C@H](C(=O)N[C@@H](Cc1ccc(O)cc1)C(N)=O)[C@@H](C)O)C(C)C)[C@@H](C)O, also called compound 15) |
| 0.549 nM | KCNTATCATQRLANFLRHSSPNFGAIPSSTNVGHNTY (C20 diacid-gGlu on alpha amino group of the N-terminal residue; Cys2-Cys7 disulfide and C-terminal amide as in h-amylin, also called compound 40) [N^α1-[(4S)-4-carboxy-4-(19-carboxynonadecanoylamino)butanoyl]-[Arg17,Pro21,Pro27,His34]-h-amylin] |
| 0.556 nM | KCNTATCATQRLAEFLRHSSPNFGAIPSSTNVGSNTY (C20 diacid-gGlu-2xOEG on alpha amino group of the N-terminal residue; Cys2-Cys7 disulfide and C-terminal amide as in h-amylin, also called compound 19) |
| 0.61 nM | {C20 diacid-γGlu}-KCNTATCATQRLANFLRHSSPNFGAIPSSTPVGSETY-NH2 (disulfide 2-7; SMILES CC[C@H](C)[C@H](NC(=O)[C@H](C)NC(=O)CNC(=O)[C@H](Cc1ccccc1)NC(=O)[C@H](CC(N)=O)NC(=O)[C@@H]1CCCN1C(=O)[C@H](CO)NC(=O)[C@H](CO)NC(=O)[C@H](Cc1c[nH]cn1)NC(=O)[C@H](CCCNC(=N)N)NC(=O)[C@H](CC(C)C)NC(=O)[C@H](Cc1ccccc1)NC(=O)[C@H](CC(N)=O)NC(=O)[C@H](C)NC(=O)[C@H](CC(C)C)NC(=O)[C@H](CCCNC(=N)N)NC(=O)[C@H](CCC(N)=O)NC(=O)[C@@H](NC(=O)[C@H](C)NC(=O)[C@@H]1CSSC[C@H](NC(=O)[C@H](CCCCN)NC(=O)CC[C@H](NC(=O)CCCCCCCCCCCCCCCCCCC(=O)O)C(=O)O)C(=O)N[C@@H](CC(N)=O)C(=O)N[C@@H]([C@@H](C)O)C(=O)N[C@@H](C)C(=O)N[C@@H]([C@@H](C)O)C(=O)N1)[C@@H](C)O)C(=O)N1CCC[C@H]1C(=O)N[C@@H](CO)C(=O)N[C@@H](CO)C(=O)N[C@H](C(=O)N1CCC[C@H]1C(=O)N[C@H](C(=O)NCC(=O)N[C@@H](CO)C(=O)N[C@@H](CCC(=O)O)C(=O)N[C@H](C(=O)N[C@@H](Cc1ccc(O)cc1)C(N)=O)[C@@H](C)O)C(C)C)[C@@H](C)O, also called compound 28) |
